For this data set, the system named is Saccharomyces cerevisiae. Put plainly: transcriptional activation domain activity (GFP:mCherry ratio, weighted mean of sorted bins, harmonized to initial dataset scale) (arbitrary fluorescence ratio units); higher = stronger transcriptional activation. As to conditions: beta-estradiol 1 µM; induction time 4 h. A digest of the protocol:
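The activation activity of each tile is the read-weighted mean of bin median fluorescence, averaged across its barcodes and mapped linearly onto the scale of the initial dataset. Tiles were fused to an estradiol-inducible synthetic transcription factor, barcoded, and integrated at URA3 in yeast diploids carrying a GFP reporter. Induction used 1 uM beta-estradiol in SC for 4 hours at 30 °C, after which cells were sorted into 8 GFP:mCherry bins, and any tile with fewer than 50 reads was dropped.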

In the case of “RGTIRPGFLIYFFILFLWVFQIHCIMQIIVNRIALLHVSPTIVRRLKWGIFSI”, the “transcriptional activation domain activity” value is 66300.
For the sequence “RGTQKREKRGKEKGEGGTWGRAEGEGKRGGKEKGRREEKRGKKKEAGGAGGRG”, the “transcriptional activation domain activity” value amounted to 23500.
Turning to “RGVEKLKVEVGCFFWILGEGMIADERLKKFMKDMAHARHVVSSPDVCPNIITY”, the “transcriptional activation domain activity” value was 40800.
For the sequence “RGWMVYIGFLVVFYSAAGFGLSVVNNFTLLIGVYKFVYPITTTLFQLIFTQIF”, the “transcriptional activation domain activity” value turned out to be 50200.
For the sequence “RGYDIAKVSNSADLVSWVIAWLLCNNPHIVFIHFGFSYDILVLAAHALHILDC”, the “transcriptional activation domain activity” value came out at 38500.
Take “RHAIVVKRVIRMSGKGKMSRMSALVVVGDGKGMVGFGEAKDPNAGKAGRKAFQ”: the “transcriptional activation domain activity” value was found to be 32800.
In the case of “RHASRHASRHASRDASPERRTLRSNLAAAFSGHGRRSRPASPERGGGGGGGAG” it was 26800; in that of “RHHPEIINALVTLIATASTTHVKYTFQGILDHYSYYVLVDGFTLKQLTWMQGI”, 62700.
Take “RHICLILINIAVGLRFIFYAIDPYCIYNIFNPILNRLLFVTFYWIALLAYVLM”: the “transcriptional activation domain activity” value turned out to be 48100.
Turning to “RHLAEAGLGIAAAGAAKELYDHRRRSRSRSSDSSRSRSRSQSHTGRHVAAAAL”, the “transcriptional activation domain activity” value was found to be 45800.
In the case of “RHLGSLAYLGNTAVGEFGWGYKMIGGLYAQYLWRSVYWSKQVSLRTRINLSID” it was 54500; in that of “RHLPAVNGGKLTSYAIVGEGSMSPHFVWTAHHAVYVVDGWSLALLFRKVELRY”, 48200; in that of “RHLSIRLCEIGLIIFAHGLHVHNAYSHLYICLHVVTSRYLYGSHCMVCQLLFY”, 75800.
In the case of “RHRRHRRSRSRDREGGRDRGRDGRRDERREERKVERRNEGRDEGRVEGRGRDA” it was 40000.
For the sequence “RHYCYIIVLKSLMYESPRIIGFAWKPEEGHFFNKVMYRTFVGLLMLLQVLLVG”, the “transcriptional activation domain activity” value was 55900.
Regarding “RIAKRRRKDGEPMLYAPDELKEGRWAPKELIKTMARLRRSIQIVLCLSLLSGF”, the “transcriptional activation domain activity” value is 77000.
In the case of “RIESHLSEREYKLQTFAEFLRVPDNGSLDIESLDSSLIENTLNSHDVTNQALD” it was 26700.
“RIFGLQSPQLVYVESMARVRKLSLSGKILRLLVDRFFVQWEALADGKTGSRWW”: the “transcriptional activation domain activity” value amounted to 61100.
In the case of “RIILINPLICGATLMLVFAAIGGGWRNVAIEIFVDHGYIRLLFILCTIPQIWL” it was 56800; in that of “RILATQFFYVAAFTFLVFHSAFRAARITLPLYQHPLRIAIPVTLTQMGLHATA”, 64600; in that of “RIMLQNAILPWFGKHDLRGKVFGCQIIELFHIFGMSFLNWIWSSGLVLATFPP”, 56600.
With “RIRDFMQFTLAATKTHYKLLPDILFKADPELCRRVSDANPSCALAALLTLYAH”, the “transcriptional activation domain activity” value was 77500.
In the case of “RIRKFTVLGATIVEPFMECVLNGVLGAFGFWVFFGVPRLWFFGWHLCYWLLVD”, the “transcriptional activation domain activity” value amounted to 86000.
Turning to “RISGRVIWSLLICHASWYLNFFIQVGVLSKRLSSPVVLCGVVSFQLLNILLIT”, the “transcriptional activation domain activity” value amounted to 53000.
Turning to “RISPGFIKKRRSSQTRQDEDHWQRVRELENQSSLYYLPIHEETPFFIDLIPNG”, the “transcriptional activation domain activity” value stood at 76200.
Turning to “RIVGESASTHAVCVSLPRDVYQASDGEEDLMGSVPQVLPALVCSCTRASSIVH”, the “transcriptional activation domain activity” value came to 68500.
Turning to “RIVIPIRLVLLVFVTMASYLLFAMIIYACQNEWLYPFLSWDQGPVAVLWYLLL”, the “transcriptional activation domain activity” value is 42800.
Turning to “RIVRLSFAYTSFIVLPWQQLSEFRGQAYTVGACLEALRLMPNLLRCAFAAYEL”, the “transcriptional activation domain activity” value turned out to be 53600.
The same measure for “RIVSSLFFICHGNYYIAFVILSKALDDYVPKIYVLNLNLNHLYLGLLIMCLLL”: 35800; for “RIWLRRLFDIARLLSVGVSNQWSLRMLLDRDAFTPLLIKWLNYYSLRIWTSAV”: 68500.
Regarding “RKADPPKEKKKPAVPAAEGAAAPAKKEKKDKKDKEAAAVSVEATEVKEEAAPA”, the “transcriptional activation domain activity” value was 13900.
Consider “RKAEEEEEEEAEAKAEKKKPAHGVPFEGTSKSARARARKRAKKEAEAAAATPA”, for which the “transcriptional activation domain activity” value was found to be 17800.
The same measure for “RKAKATAKEGDKEKSDGGEKLKKASKRSDGEDDKAGQRSSGNKKSRAKKRAED”: 16400.
For the sequence “RKARQAQGAQGGGGGGAGGPGARGGARGGRVGGERGGRGGGRGGERGRGRGRG”, the “transcriptional activation domain activity” value amounted to 51400.
“RKDALLKTSFGGTVFAVRQIGGDRFHGMPFVHLMVIVICLHWTWLRAVIFLGR”: the “transcriptional activation domain activity” value is 52800.
For “RKDKSKDTKERDVSKRQRGSSRNKGTKAKGTQTKQNEDEEDIVKTRKSKAKDK”, the “transcriptional activation domain activity” value came out at 15200.
For the sequence “RKDKSRVEDSDSADSDAGHVNGNKAGEGEEGAAKKKRKRRHKKRVPDGEGASV”, the “transcriptional activation domain activity” value was determined as 29700.
Turning to “RKDRKDRTRKERRDRHDDGRRHRHRRSSRSRSRDRRDRKHDRSRSRDRRKDGD”, the “transcriptional activation domain activity” value was 9360.
“RKEAMDFDAELKRRNTHLYCAIIDLEKEMQLVAYLVCACLKKVTFLHKVCVLE”: the “transcriptional activation domain activity” value is 67900.
Regarding “RKEGGGHGSSSRRDRDRDRDRSDRHRSSKKSSSSNNHDADGTAAAAADASGVH”, the “transcriptional activation domain activity” value turned out to be 18200.
As to “RKEKGRNANNAKKGQNKRGGAQKEKAKTKVKSGEVSAEPGMKRGKRGRRRAAA”, the “transcriptional activation domain activity” value is 48200.
Regarding “RKERKREKESERRERHHRRSQTHSSDEARERHRDGKTKQSRSSDRDPRKTRAR”, the “transcriptional activation domain activity” value came out at 30800.
As to “RKGEGEGSEPPHPAEPRRLRRSHEACARCRSKKIKCDSKHPRCTACATAGTPC”, the “transcriptional activation domain activity” value came out at 23800.
Turning to “RKGSVAKEMIDGRVGRREKGGQGDNRGRKRTRRGSGERKRSDKKGRREKRNRK”, the “transcriptional activation domain activity” value was found to be 42300.
In the case of “RKHMMAFYFDDILEKVVGTATMDERGVFIRDNERGILWCLLVFRMLCWLILHD”, the “transcriptional activation domain activity” value worked out at 58000.
Take “RKIVNEPREYLHAGNVKDNQGARQKKRRVGRGLGSGLGKTSGRGQKGWKARAP”: the “transcriptional activation domain activity” value is 37000.
Consider “RKKREREAEKAEAKRKEERDARRREREKREEEREREREKEREERRRARERDRE”, for which the “transcriptional activation domain activity” value was 33900.
For the sequence “RKKRERRERLKRGKKGGKKGDEDGAGDGEKGKGGKVKARVVIREDAEGLGGEG”, the “transcriptional activation domain activity” value is 30900.
As to “RKKRRSTRRSRSREESSRRRGDDRRRNHSRDRSTTSRRRSRKSRSPSRDRSSR”, the “transcriptional activation domain activity” value came to 32300.
Turning to “RKKSALEEEERKEKENDELEKKGKRKEEKEEKRRRGKGEKKGKEIRKEKEEKE”, the “transcriptional activation domain activity” value came out at 25300.
For “RKLLIALDMRLQNIRSNWKEHHSLTVVIQLTLRLLSLGLSSEVVAGCLDLLKS”, the “transcriptional activation domain activity” value was 64700.
Turning to “RKLRDVHVPEVPLPLGPDGKADRKKSSLIMVHYVLMHSREVILLCLHRSFFAQ”, the “transcriptional activation domain activity” value was 65300.
As for “RKLRTKIIELSGSVEAACALGVADGIVDLVESGETMRAAGLKAIDTVVDTQAV”, the “transcriptional activation domain activity” value turned out to be 29100.
Consider “RKNNKREVKVEAREPHHKGRKNNKREVEAVEEVEARDPHHKGRKNNNREVEVE”, for which the “transcriptional activation domain activity” value stood at 28300.
Consider “RKNTSSEEDELEESRNNRNKNHRSRQDGNKEDRSSRSRQSHRQKRERSGSEER”, for which the “transcriptional activation domain activity” value stood at 14100.

The values are drawn from the supplement of paper PMC12636428.
